In US12269859B2, “Synthetic immune receptors and methods of use thereof” (Angeles Therapeutics, Inc., priority 2016, dated 2025):

System: target antigen-expressing cell line
Experiment: Jurkat NFAT-GFP assay, coculture with target cell lines expressing the respective target antigen (summary Table 10A)
Assay type: cell-based, human
Set-up: key: The signs +/−, +, 2+ etc. after the name of the cell lines indicate the relative degree of positivity on the Jurkat-NFAT-GFP assay as measured by the % GFP positive cells; +: relative degree of positivity on the Jurkat-NFAT-GFP assay as measured by the % GFP positive cells; 2+: relative degree of positivity on the Jurkat-NFAT-GFP assay as measured by the % GFP positive cells
Summary of the method: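 Positivity is scored when SIR-expressing reporter Jurkat cells show more GFP-positive cells than parental controls after coculture with the antigen-bearing line. Effector-to-target ratio is about 1:2, coculture lasts roughly 4–18 hours, and GFP is quantified by FACS.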

Molecule | NFAT-GFP ASSAY Positive Cell lines (coculture with RAJI cells) | NFAT-GFP ASSAY Positive Cell lines (coculture with HEL cells) | NFAT-GFP ASSAY Positive Cell lines (coculture with NALM6 cells)
041416-N03 (protein, Polynucleotide encoding a Synthetic Immune Receptor (SIR)) MALPVTALLLPLALLLHAARPDIVMTQSHKFMSTSVGDRVSVTCKASQNVGNNVAWYQQKPGQSPKVLIYSASYRYSGVPDRFTGSGSGTDFTLTISNVQSEDLAEYFCQQYNTYPFTFGSGTKLEIKLEGKPIPNPLLGLDSTGSGEDLKNVFPPEVAVFEPSKAEIAHTQKATLVCLATGFYPDHVELSWWVNGKEVHSGVCTDPQPLKEQPALNDSRYCLSSRLRVSATFWQNPRNHFRCQVQFYGLSENDEWTQDRAKPVTQIVSAEAWGRADCGITSASYHQGVLSATILYEILLGKATLYAVLVSALVLMAMVKRKDSRGRAKRSGSGATNFSLLKQAGDVEENPGPTSMDWIWRILFLVGAATGAHSFEEVQLEESGGGLVQPGGSMKLSCVASGFTFSNYWMNWVRQSPEKGLEWVAEIRFKSHNYATHFAESVKGRFTISRDDSKSSVYLQMNNLRAEDTGIYYCTRRIGNSDYDWWYFDVWGAGTSVTVSSASTREQKLISEEDGSGTPFPSLAPPIMLLVDGKQQMVVVCLVLDVAPPGLDSPIWFSAGNGSALDAFTYGPSPATDGTWTNLAHLSLPSEELASWEPLVCHTGPGAEGHSRSTQPMHLSGEASTARTCPQEPLRGTPGGALWLGVLRLLLFKLLLFDLLLTCSCLCDPAGPLPSPATTTRLRALGSHRLHPATETGGREATSSPRPQPRDRRWGDTPPGRKPGSPVRAKRSGSGVKQTLNFDLLKLAGDVESNPGPSRGHMTEYKPTVRLATRDDVPRAVRTLAAAFADYPATRHTVDPDRHIERVTELQELFLTRVGLDIGKVWVADDGAAVAVWTTPESVEAGAVFAEIGPRMAELSGSRLAAQQQMEGLLAPHRPKEPAWFLATVGVSPDHQGKGLGSAVVLPGVEAAERAGVPAFLETSAPRNLPFYERLGFTVTADVEVPEGPRTWCMTRKPGA | RAJI (+/−) |  | 
092216-B03 (protein, Synthetic Immune Receptor (SIR)) MALPVTALLLPLALLLHAARPLEGKPIPNPLLGLDSTGSGEDLKNVFPPEVAVFEPSKAEIAHTQKATLVCLATGFYPDHVELSWWVNGKEVHSGVCTDPQPLKEQPALNDSRYCLSSRLRVSATFWQNPRNHFRCQVQFYGLSENDEWTQDRAKPVTQIVSAEAWGRADCGITSASYHQGVLSATILYEILLGKATLYAVLVSALVLMAMVKRKDSRGRAKRSGSGATNFSLLKQAGDVEENPGPTSMALPVTALLLPLALLLHAARPDQIVLTQSPAIMSASPGEKVTISCSASSSVSYMYWYQQKPGSSPKPWIYRTSNLASGVPARFSGSGSGTSYSLTISNMEAEDAAAYYCQQYHSYPTTFGGGTKLEVKGGGGSGGGGSGGGGSEVQLVESGGGLVQPKGSLKLSCAASGFSFNTYAMNWVRQAPGKGLEWIAHIRSKSNNFATYYADSVKDRFSISRDASENILFLQMNNLKTEDTAMYYCVRQGGDFPMDYWGQGTSVTVSSTREQKLISEEDGSGIQNPDPAVYQLRDSKSSDKSVCLFTDFDSQTNVSQSKDSDVYITDKCVLDMRSMDFKSNSAVAWSNKSDFACANAFNNSIIPEDTFFPSSDVPCDVKLVEKSFETDTNLNFQNLSVIGFRILLLKVAGFNLLMTLRLWSSRAKRSGSGVKQTLNFDLLKLAGDVESNPGPSRGHMTEYKPTVRLATRDDVPRAVRTLAAAFADYPATRHTVDPDRHIERVTELQELFLTRVGLDIGKVWVADDGAAVAVWTTPESVEAGAVFAEIGPRMAELSGSRLAAQQQMEGLLAPHRPKEPAWFLATVGVSPDHQGKGLGSAVVLPGVEAAERAGVPAFLETSAPRNLPFYERLGFTVTADVEVPEGPRTWCMTRKPGA |  | HEL (+) | 
090116-K02 (protein, Synthetic Immune Receptor (SIR)) MALPVTALLLPLALLLHAARPLEGKPIPNPLLGLDSTGSGEDLKNVFPPEVAVFEPSKAEIAHTQKATLVCLATGFYPDHVELSWWVNGKEVHSGVCTDPQPLKEQPALNDSRYCLSSRLRVSATFWQNPRNHFRCQVQFYGLSENDEWTQDRAKPVTQIVSAEAWGRADCGITSASYHQGVLSATILYEILLGKATLYAVLVSALVLMAMVKRKDSRGRAKRSGSGATNFSLLKQAGDVEENPGPTSMALPVTALLLPLALLLHAARPDIVMTQSHKFMSTSVGDRVSVTCKASQNVGNNVAWYQQKPGQSPKVLIYSASYRYSGVPDRFTGSGSGTDFTLTISNVQSEDLAEYFCQQYNTYPFTFGSGTKLEIKGGGGSGGGGSGGGGSEVQLEESGGGLVQPGGSMKLSCVASGFTFSNYWMNWVRQSPEKGLEWVAEIRFKSHNYATHFAESVKGRFTISRDDSKSSVYLQMNNLRAEDTGIYYCTRRIGNSDYDWWYFDVWGAGTSVTVSSASTREQKLISEEDGSGIQNPDPAVYQLRDSKSSDKSVCLFTDFDSQTNVSQSKDSDVYITDKCVLDMRSMDFKSNSAVAWSNKSDFACANAFNNSIIPEDTFFPSSDVPCDVKLVEKSFETDTNLNFQNLSVIGFRILLLKVAGFNLLMTLRLWSSRAKRSGSGVKQTLNFDLLKLAGDVESNPGPSRGHMTEYKPTVRLATRDDVPRAVRTLAAAFADYPATRHTVDPDRHIERVTELQELFLTRVGLDIGKVWVADDGAAVAVWTTPESVEAGAVFAEIGPRMAELSGSRLAAQQQMEGLLAPHRPKEPAWFLATVGVSPDHQGKGLGSAVVLPGVEAAERAGVPAFLETSAPRNLPFYERLGFTVTADVEVPEGPRTWCMTRKPGA | RAJI (2+), NALM6 |  | (2+)
032216-Y07 (protein, Polynucleotide encoding a Synthetic Immune Receptor (SIR)) MALPVTALLLPLALLLHAARPDIVMTQSHKFMSTSVGDRVSVTCKASQNVGNNVAWYQQKPGQSPKVLIYSASYRYSGVPDRFTGSGSGTDFTLTISNVQSEDLAEYFCQQYNTYPFTFGSGTKLEIKLEGKPIPNPLLGLDSTGSGEDLKNVFPPEVAVFEPSKAEIAHTQKATLVCLATGFYPDHVELSWWVNGKEVHSGVCTDPQPLKEQPALNDSRYCLSSRLRVSATFWQNPRNHFRCQVQFYGLSENDEWTQDRAKPVTQIVSAEAWGRADCGITSASYHQGVLSATILYEILLGKATLYAVLVSALVLMAMVKRKDSRGRAKRSGSGATNFSLLKQAGDVEENPGPTSMDWIWRILFLVGAATGAHSFEEVQLEESGGGLVQPGGSMKLSCVASGFTFSNYWMNWVRQSPEKGLEWVAEIRFKSHNYATHFAESVKGRFTISRDDSKSSVYLQMNNLRAEDTGIYYCTRRIGNSDYDWWYFDVWGAGTSVTVSSASTREQKLISEEDGSGIQNPDPAVYQLRDSKSSDKSVCLFTDFDSQTNVSQSKDSDVYITDKCVLDMRSMDFKSNSAVAWSNKSDFACANAFNNSIIPEDTFFPSSDVPCDVKLVEKSFETDTNLNFQNLSVIGFRILLLKVAGFNLLMTLRLWSSRAKRSGSGVKQTLNFDLLKLAGDVESNPGPSRGHMTEYKPTVRLATRDDVPRAVRTLAAAFADYPATRHTVDPDRHIERVTELQELFLTRVGLDIGKVWVADDGAAVAVWTTPESVEAGAVFAEIGPRMAELSGSRLAAQQQMEGLLAPHRPKEPAWFLATVGVSPDHQGKGLGSAVVLPGVEAAERAGVPAFLETSAPRNLPFYERLGFTVTADVEVPEGPRTWCMTRKPGA | RAJI (+) |  | 
091316-A01 (protein, Synthetic Immune Receptor (SIR)) MALPVTALLLPLALLLHAARPLEGKPIPNPLLGLDSTGSGEDLKNVFPPEVAVFEPSKAEIAHTQKATLVCLATGFYPDHVELSWWVNGKEVHSGVCTDPQPLKEQPALNDSRYCLSSRLRVSATFWQNPRNHFRCQVQFYGLSENDEWTQDRAKPVTQIVSAEAWGRADCGITSASYHQGVLSATILYEILLGKATLYAVLVSALVLMAMVKRKDSRGRAKRSGSGATNFSLLKQAGDVEENPGPTSMALPVTALLLPLALLLHAARPDIVMTQAAPSIPVTPGESVSISCRSDKSLLHSNGNTYLFWFLQRPGQSPQLLIYRMSNLASGVPDRFSGSGSGTAFTLRISGVEAEDVGVYYCMQHLEYPYTFGGGTKLEIKGGGGSGGGGSGGGGSQVQLQQSGPELVKPGASVKMSCKASGYAFSSSWLNWVRQRPGKGLEWIGRIYPGDGENHYNGKFKGKATLTADKSSSTGYMQLSSLTSEDSAVYFCASYYEGGYWGQGTLITVSATREQKLISEEDGSGIQNPDPAVYQLRDSKSSDKSVCLFTDFDSQTNVSQSKDSDVYITDKCVLDMRSMDFKSNSAVAWSNKSDFACANAFNNSIIPEDTFFPSSDVPCDVKLVEKSFETDTNLNFQNLSVIGFRILLLKVAGFNLLMTLRLWSSRAKRSGSGVKQTLNFDLLKLAGDVESNPGPSRGHMTEYKPTVRLATRDDVPRAVRTLAAAFADYPATRHTVDPDRHIERVTELQELFLTRVGLDIGKVWVADDGAAVAVWTTPESVEAGAVFAEIGPRMAELSGSRLAAQQQMEGLLAPHRPKEPAWFLATVGVSPDHQGKGLGSAVVLPGVEAAERAGVPAFLETSAPRNLPFYERLGFTVTADVEVPEGPRTWCMTRKPGA |  | HEL (+/−) | 
083016-B06 (protein, Polynucleotide encoding a Synthetic Immune Receptor (SIR)) MALPVTALLLPLALLLHAARPLEGKPIPNPLLGLDSTGSGEDLKNVFPPEVAVFEPSKAEIAHTQKATLVCLATGFYPDHVELSWWVNGKEVHSGVCTDPQPLKEQPALNDSRYCLSSRLRVSATFWQNPRNHFRCQVQFYGLSENDEWTQDRAKPVTQIVSAEAWGRADCGITSASYHQGVLSATILYEILLGKATLYAVLVSALVLMAMVKRKDSRGRAKRSGSGATNFSLLKQAGDVEENPGPTSMALPVTALLLPLALLLHAARPDIVMTQSHKFMSTSVGDRVSVTCKASQNVGNNVAWYQQKPGQSPKVLIYSASYRYSGVPDRFTGSGSGTDFTLTISNVQSEDLAEYFCQQYNTYPFTFGSGTKLEIKGGGGSGGGGSGGGGSEVQLEESGGGLVQPGGSMKLSCVASGFTFSNYWMNWVRQSPEKGLEWVAEIRFKSHNYATHFAESVKGRFTISRDDSKSSVYLQMNNLRAEDTGIYYCTRRIGNSDYDWWYFDVWGAGTSVTVSSASTREQKLISEEDLGSGTPFPSLAPPIMLLVDGKQQMVVVCLVLDVAPPGLDSPIWFSAGNGSALDAFTYGPSPATDGTWTNLAHLSLPSEELASWEPLVCHTGPGAEGHSRSTQPMHLSGEASTARTCPQEPLRGTPGGALWLGVLRLLLFKLLLFDLLLTCSCLCDPAGPLPSPATTTRLRALGSHRLHPATETGGREATSSPRPQPRDRRWGDTPPGRKPGSPVRAKRSGSGVKQTLNFDLLKLAGDVESNPGPSRSRGHMTEYKPTVRLATRDDVPRAVRTLAAAFADYPATRHTVDPDRHIERVTELQELFLTRVGLDIGKVWVADDGAAVAVWTTPESVEAGAVFAEIGPRMAELSGSRLAAQQQMEGLLAPHRPKEPAWFLATVGVSPDHQGKGLGSAVVLPGVEAAERAGVPAFLETSAPRNLPFYERLGFTVTADVEVPEGPRTWCMTRKPGA | RAJI (+) |  | 
